Assays:
Test in all cases: cell-based or functional assay
[1] = molecular target: HIV-1 92RW008 Env (HIV-1)
[2] = molecular target: HIV-1 92TH021 Env (HIV-1)
[3] = molecular target: HIV-1 92UG031 Env (HIV-1)
[4] = molecular target: HIV-1 92UG037 Env (HIV-1)
[5] = molecular target: HIV-1 92WR009 Env (HIV-1)
[6] = molecular target: HIV-1 92WR020 Env (HIV-1)
[7] = molecular target: HIV-1 92WR021 Env (HIV-1)
[8] = molecular target: HIV-1 92WR024 Env (HIV-1)
[9] = molecular target: HIV-1 92WR026 Env (HIV-1)
[10] = molecular target: HIV-1 93UG077 Env (HIV-1)
[11] = molecular target: HIV-1 93WR029 Env (HIV-1)
[12] = molecular target: HIV-1 94KE105 Env (HIV-1)
[13] = molecular target: HIV-1 94UG103 Env (HIV-1)
HIV-1 CMU02 Env (HIV-1) = molecular target: HIV-1 CMU02 Env (HIV-1)
[14] = molecular target: HIV-1 Env of isolate MG RM-C-019 (subtype C) (HIV-1)
[15] = molecular target: HIV-1 Env of isolate MG RM-C-020 (subtype C) (HIV-1)
[16] = molecular target: HIV-1 Env of isolate MG RM-C-022 (subtype C) (HIV-1)
[17] = molecular target: HIV-1 Env of isolate MG RM-C-023 (subtype C) (HIV-1)
[18] = molecular target: HIV-1 Env of isolate MG RM-C-024 (subtype C) (HIV-1)
[19] = molecular target: HIV-1 Env of isolate MG RM-C-025 (subtype C) (HIV-1)
[20] = molecular target: HIV-1 Env of isolate MG RM-C-026 (subtype C) (HIV-1)
[21] = molecular target: HIV-1 Env of isolate MG RM-C-027 (subtype C) (HIV-1)
[22] = molecular target: HIV-1 Env of isolate MG RM-C-028 (subtype C) (HIV-1)
[23] = molecular target: HIV-1 MGRM-A-001 Env (HIV-1)
[24] = molecular target: HIV-1 MGRM-A-002 Env (HIV-1)
[25] = molecular target: HIV-1 MGRM-A-003 Env (HIV-1)
[26] = molecular target: HIV-1 MGRM-A-004 Env (HIV-1)
[27] = molecular target: HIV-1 MGRM-A-005 Env (HIV-1)
[28] = molecular target: HIV-1 MGRM-A-006 Env (HIV-1)
[29] = molecular target: HIV-1 MGRM-A-007 Env (HIV-1)
[30] = molecular target: HIV-1 MGRM-A-008 Env (HIV-1)
[31] = molecular target: HIV-1 MGRM-A-009 Env (HIV-1)
[32] = molecular target: HIV-1 MGRM-A-010 Env (HIV-1)
[33] = molecular target: HIV-1 MGRM-A-011 Env (HIV-1)
[34] = molecular target: HIV-1 MGRM-A-012 Env (HIV-1)
[35] = molecular target: HIV-1 MGRM-A-013 Env (HIV-1)
[36] = molecular target: HIV-1 MGRM-A-014 Env (HIV-1)
[37] = molecular target: HIV-1 MGRM-AE-001 Env (HIV-1)
[38] = molecular target: HIV-1 MGRM-AE-002 Env (HIV-1)
[39] = molecular target: HIV-1 MGRM-AE-003 Env (HIV-1)
[40] = molecular target: HIV-1 MGRM-AE-004 Env (HIV-1)
[41] = molecular target: HIV-1 MGRM-AE-005 Env (HIV-1)
[42] = molecular target: HIV-1 MGRM-AE-006 Env (HIV-1)
[43] = molecular target: HIV-1 MGRM-AE-007 Env (HIV-1)
[44] = molecular target: HIV-1 MGRM-AE-008 Env (HIV-1)
[45] = molecular target: HIV-1 MGRM-AG-001 Env (HIV-1)
[46] = molecular target: HIV-1 MGRM-AG-002 Env (HIV-1)
[47] = molecular target: HIV-1 MGRM-AG-003 Env (HIV-1)
[48] = molecular target: HIV-1 MGRM-AG-005 Env (HIV-1)
[49] = molecular target: HIV-1 MGRM-AG-006 Env (HIV-1)
[50] = molecular target: HIV-1 MGRM-AG-008 Env (HIV-1)
[51] = molecular target: HIV-1 MGRM-AG-009 Env (HIV-1)
[52] = molecular target: HIV-1 MGRM-AG-011 Env (HIV-1)
[53] = molecular target: HIV-1 MGRM-AG-012 Env (HIV-1)
[54] = molecular target: HIV-1 MGRM-AG-013 Env (HIV-1)
HIV-1 VLGCA1 Env (HIV-1) = molecular target: HIV-1 VLGCA1 Env (HIV-1)

Sequence of 5329_C19 (PGT-136) (antibody) (VH): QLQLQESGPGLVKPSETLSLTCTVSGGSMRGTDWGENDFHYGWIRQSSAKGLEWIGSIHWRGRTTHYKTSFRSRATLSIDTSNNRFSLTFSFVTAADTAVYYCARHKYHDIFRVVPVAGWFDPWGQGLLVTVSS
Sequence of 5329_C19 (PGT-136) (antibody) (VL): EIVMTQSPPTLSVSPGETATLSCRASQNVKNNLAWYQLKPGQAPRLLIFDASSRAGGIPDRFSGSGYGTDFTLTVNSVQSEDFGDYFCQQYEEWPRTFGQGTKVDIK

Substance: 5114_A19 (PGT-128) (antibody)
- IC50 [1]: 0.003 µg/mL
- IC50 [2]: 0.01 µg/mL
- IC50 [3]: > 50 µg/mL
- IC50 [4]: 0.006 µg/mL
- IC50 [5]: 0.812 µg/mL
- IC50 [6]: 0.005 µg/mL
- IC50 [7]: 0.005 µg/mL
- IC50 [8]: > 50 µg/mL
- IC50 [9]: 0.01 µg/mL
- IC50 [10]: 0.014 µg/mL
- IC50 [11]: > 50 µg/mL
- IC50 [12]: 0.007 µg/mL
- IC50 [13]: 0.011 µg/mL
- IC50 (HIV-1 CMU02 Env (HIV-1)): > 50 µg/mL
- IC50 [14]: 0.01 µg/mL
- IC50 [15]: 5.85 µg/mL
- IC50 [16]: 0.042 µg/mL
- IC50 [17]: 0.026 µg/mL
- IC50 [18]: > 50 µg/mL
- IC50 [19]: 10.5 µg/mL
- IC50 [20]: 0.007 µg/mL
- IC50 [21]: 0.081 µg/mL
- IC50 [22]: 14.4 µg/mL
- IC50 [23]: > 50 µg/mL
- IC50 [24]: 0.149 µg/mL
- IC50 [25]: > 50 µg/mL
- IC50 [26]: > 50 µg/mL
- IC50 [27]: > 50 µg/mL
- IC50 [28]: > 50 µg/mL
- IC50 [29]: > 50 µg/mL
- IC50 [30]: > 50 µg/mL
- IC50 [31]: 0.005 µg/mL
- IC50 [32]: 0.005 µg/mL
- IC50 [33]: > 50 µg/mL
- IC50 [34]: 0.025 µg/mL
- IC50 [35]: 0.008 µg/mL
- IC50 [36]: 0.007 µg/mL
- IC50 [37]: 0.069 µg/mL
- IC50 [38]: 0.522 µg/mL
- IC50 [39]: 0.18 µg/mL
- IC50 [40]: > 50 µg/mL
- IC50 [41]: 0.032 µg/mL
- IC50 [42]: 0.044 µg/mL
- IC50 [43]: > 50 µg/mL
- IC50 [44]: > 50 µg/mL
- IC50 [45]: 4.73 µg/mL
- IC50 [46]: 4.99 µg/mL
- IC50 [47]: 34.8 µg/mL
- IC50 [48]: 0.037 µg/mL
- IC50 [49]: 0.009 µg/mL
- IC50 [50]: 0.668 µg/mL
- IC50 [51]: 0.021 µg/mL
- IC50 [52]: 3.93 µg/mL
- IC50 [53]: > 50 µg/mL
- IC50 [54]: 0.004 µg/mL
- IC50 (HIV-1 VLGCA1 Env (HIV-1)): 0.838 µg/mL

Substance: 5343_B08 (PGT-135) (antibody)
- IC50 [1]: 1.42 µg/mL
- IC50 [2]: > 50 µg/mL
- IC50 [3]: > 50 µg/mL
- IC50 [4]: 3.67 µg/mL
- IC50 [5]: > 50 µg/mL
- IC50 [6]: 0.067 µg/mL
- IC50 [7]: > 50 µg/mL
- IC50 [8]: > 50 µg/mL
- IC50 [9]: 0.068 µg/mL
- IC50 [10]: > 50 µg/mL
- IC50 [11]: > 50 µg/mL
- IC50 [12]: 0.063 µg/mL
- IC50 [13]: > 50 µg/mL
- IC50 (HIV-1 CMU02 Env (HIV-1)): > 50 µg/mL
- IC50 [14]: 0.264 µg/mL
- IC50 [15]: > 50 µg/mL
- IC50 [16]: > 50 µg/mL
- IC50 [17]: 0.061 µg/mL
- IC50 [18]: > 50 µg/mL
- IC50 [19]: > 50 µg/mL
- IC50 [20]: 0.004 µg/mL
- IC50 [21]: > 50 µg/mL
- IC50 [22]: 1.47 µg/mL
- IC50 [23]: > 50 µg/mL
- IC50 [24]: > 50 µg/mL
- IC50 [25]: > 50 µg/mL
- IC50 [26]: > 50 µg/mL
- IC50 [27]: > 50 µg/mL
- IC50 [28]: > 50 µg/mL
- IC50 [29]: > 50 µg/mL
- IC50 [30]: > 50 µg/mL
- IC50 [31]: > 50 µg/mL
- IC50 [32]: > 50 µg/mL
- IC50 [33]: > 50 µg/mL
- IC50 [34]: > 50 µg/mL
- IC50 [35]: > 50 µg/mL
- IC50 [36]: 0.636 µg/mL
- IC50 [37]: > 50 µg/mL
- IC50 [38]: > 50 µg/mL
- IC50 [39]: > 50 µg/mL
- IC50 [40]: > 50 µg/mL
- IC50 [41]: > 50 µg/mL
- IC50 [42]: > 50 µg/mL
- IC50 [43]: > 50 µg/mL
- IC50 [44]: > 50 µg/mL
- IC50 [45]: > 50 µg/mL
- IC50 [46]: > 50 µg/mL
- IC50 [47]: > 50 µg/mL
- IC50 [48]: > 50 µg/mL
- IC50 [49]: 17.9 µg/mL
- IC50 [50]: > 50 µg/mL
- IC50 [51]: > 50 µg/mL
- IC50 [52]: > 50 µg/mL
- IC50 [53]: 41.9 µg/mL
- IC50 [54]: > 50 µg/mL
- IC50 (HIV-1 VLGCA1 Env (HIV-1)): > 50 µg/mL

Substance: 5329_C19 (PGT-136) (antibody)
- IC50 [1]: > 50 µg/mL
- IC50 [2]: > 50 µg/mL
- IC50 [3]: > 50 µg/mL
- IC50 [4]: > 50 µg/mL
- IC50 [5]: > 50 µg/mL
- IC50 [6]: 2.33 µg/mL
- IC50 [7]: > 50 µg/mL
- IC50 [8]: > 50 µg/mL
- IC50 [9]: > 50 µg/mL
- IC50 [10]: > 50 µg/mL
- IC50 [11]: > 50 µg/mL
- IC50 [12]: > 50 µg/mL
- IC50 [13]: > 50 µg/mL
- IC50 (HIV-1 CMU02 Env (HIV-1)): > 50 µg/mL
- IC50 [14]: 20.1 µg/mL
- IC50 [15]: > 50 µg/mL
- IC50 [16]: > 50 µg/mL
- IC50 [17]: 3.2 µg/mL
- IC50 [18]: > 50 µg/mL
- IC50 [19]: > 50 µg/mL
- IC50 [20]: 0.006 µg/mL
- IC50 [21]: > 50 µg/mL
- IC50 [22]: 33.7 µg/mL
- IC50 [23]: > 50 µg/mL
- IC50 [24]: > 50 µg/mL
- IC50 [25]: > 50 µg/mL
- IC50 [26]: > 50 µg/mL
- IC50 [27]: > 50 µg/mL
- IC50 [28]: > 50 µg/mL
- IC50 [29]: > 50 µg/mL
- IC50 [30]: > 50 µg/mL
- IC50 [31]: > 50 µg/mL
- IC50 [32]: > 50 µg/mL
- IC50 [33]: > 50 µg/mL
- IC50 [34]: > 50 µg/mL
- IC50 [35]: > 50 µg/mL
- IC50 [36]: > 50 µg/mL
- IC50 [37]: > 50 µg/mL
- IC50 [38]: > 50 µg/mL
- IC50 [39]: > 50 µg/mL
- IC50 [40]: > 50 µg/mL
- IC50 [41]: > 50 µg/mL
- IC50 [42]: > 50 µg/mL
- IC50 [43]: > 50 µg/mL
- IC50 [44]: > 50 µg/mL
- IC50 [45]: > 50 µg/mL
- IC50 [46]: > 50 µg/mL
- IC50 [47]: > 50 µg/mL
- IC50 [48]: > 50 µg/mL
- IC50 [49]: 29.1 µg/mL
- IC50 [50]: > 50 µg/mL
- IC50 [51]: > 50 µg/mL
- IC50 [52]: > 50 µg/mL
- IC50 [53]: > 50 µg/mL
- IC50 [54]: > 50 µg/mL
- IC50 (HIV-1 VLGCA1 Env (HIV-1)): > 50 µg/mL

— patent US20160264649A1
